Reference: patent US20160272683A1 (Novo Nordisk, published 2016)
Numbered stars: 1 amine (or outer) side, 2 acyl side, 3 side chain; on linkers, the order of the positions; unused ones are H or OH. * marks the point of attachment. C20 diacid = O=C(O)CCCCCCCCCCCCCCCCCCC(=O)*; γGlu = O=C(O)[C@H](CCC(=O)[*:2])N[*:1]

Experiments:
[1] = biological target: T1, human amylin receptor (amylin 3(a) receptor: human calcitonin receptor with RAMP-3) (human, UniProt P30988 25-474; O60896 24-148, limits assumed); experiment: SPA competition vs 125I-rat amylin, membranes with human CTR + RAMP-3 (Assay V)
T1 construct: whole, on cells; Assay V: membranes of the Amylin 3(a)/CRE-luc BHK cells on SPA beads; also called hAmylin-R
T1 sequence (looked up) 1: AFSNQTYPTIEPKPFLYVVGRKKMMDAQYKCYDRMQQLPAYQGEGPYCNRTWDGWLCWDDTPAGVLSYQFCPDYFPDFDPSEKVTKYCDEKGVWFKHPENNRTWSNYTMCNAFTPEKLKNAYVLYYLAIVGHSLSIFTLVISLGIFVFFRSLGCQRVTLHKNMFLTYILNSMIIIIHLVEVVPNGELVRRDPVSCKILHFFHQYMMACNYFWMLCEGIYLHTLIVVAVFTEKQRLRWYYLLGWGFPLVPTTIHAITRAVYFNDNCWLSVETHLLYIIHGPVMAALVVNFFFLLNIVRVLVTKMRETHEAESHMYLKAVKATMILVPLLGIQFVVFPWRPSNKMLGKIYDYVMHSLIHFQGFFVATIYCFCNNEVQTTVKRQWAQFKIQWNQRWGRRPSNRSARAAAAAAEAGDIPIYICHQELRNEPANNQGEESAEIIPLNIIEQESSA
T1 sequence (looked up) 2: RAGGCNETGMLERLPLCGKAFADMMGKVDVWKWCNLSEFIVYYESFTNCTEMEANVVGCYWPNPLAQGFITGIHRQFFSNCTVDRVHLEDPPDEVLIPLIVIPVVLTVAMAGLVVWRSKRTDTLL

[2] = biological target: T2, human calcitonin receptor (human, UniProt P30988 25-474); experiment: SPA competition vs 125I-calcitonin, membranes with human CTR (Assay VII)
T2 construct: whole, on cells; Assay VII: membranes on SPA beads; also called hCT-R; hCTR
T2 sequence (looked up): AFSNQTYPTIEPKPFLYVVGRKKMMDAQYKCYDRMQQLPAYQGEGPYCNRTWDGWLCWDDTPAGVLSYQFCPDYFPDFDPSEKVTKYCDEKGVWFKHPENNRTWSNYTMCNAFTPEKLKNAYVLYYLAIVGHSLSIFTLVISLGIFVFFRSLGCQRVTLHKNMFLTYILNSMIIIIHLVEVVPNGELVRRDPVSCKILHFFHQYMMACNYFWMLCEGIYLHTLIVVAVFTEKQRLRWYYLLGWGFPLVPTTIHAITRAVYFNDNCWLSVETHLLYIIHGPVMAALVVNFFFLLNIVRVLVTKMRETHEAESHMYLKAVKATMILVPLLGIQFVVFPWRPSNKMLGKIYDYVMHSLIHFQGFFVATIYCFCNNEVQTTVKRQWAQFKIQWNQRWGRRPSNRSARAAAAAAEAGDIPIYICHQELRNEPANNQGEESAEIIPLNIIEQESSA
Summary of the method: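 SPA competition on membranes from BHK tk'ts 13 cells stably expressing human calcitonin receptor plus CRE-luciferase reporter; membranes 35 ng/μL final with 0.05 mg/well beads.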

B1: [N-terminal(C20 diacid-gGlu), des1, 4G, 8L, 9V, 15Q, 21Q, 23Y, 30S, 31Q, 32T, 33Y]mimylin (peptide)
peptide: {C20 diacid-γGlu}-ASGLSTLVLGRLSQELHELQTYPRTETGSQTY-NH2
SMILES: CC(C)C[C@H](NC(=O)CNC(=O)[C@H](CO)NC(=O)[C@H](C)NC(=O)CC[C@H](NC(=O)CCCCCCCCCCCCCCCCCCC(=O)O)C(=O)O)C(=O)N[C@@H](CO)C(=O)N[C@H](C(=O)N[C@@H](CC(C)C)C(=O)N[C@H](C(=O)N[C@@H](CC(C)C)C(=O)NCC(=O)N[C@@H](CCCNC(=N)N)C(=O)N[C@@H](CC(C)C)C(=O)N[C@@H](CO)C(=O)N[C@@H](CCC(N)=O)C(=O)N[C@@H](CCC(=O)O)C(=O)N[C@@H](CC(C)C)C(=O)N[C@@H](Cc1c[nH]cn1)C(=O)N[C@@H](CCC(=O)O)C(=O)N[C@@H](CC(C)C)C(=O)N[C@@H](CCC(N)=O)C(=O)N[C@H](C(=O)N[C@@H](Cc1ccc(O)cc1)C(=O)N1CCC[C@H]1C(=O)N[C@@H](CCCNC(=N)N)C(=O)N[C@H](C(=O)N[C@@H](CCC(=O)O)C(=O)N[C@H](C(=O)NCC(=O)N[C@@H](CO)C(=O)N[C@@H](CCC(N)=O)C(=O)N[C@H](C(=O)N[C@@H](Cc1ccc(O)cc1)C(N)=O)[C@@H](C)O)[C@@H](C)O)[C@@H](C)O)[C@@H](C)O)C(C)C)[C@@H](C)O
notes: mimylin derivative; des1 = residue 1 deleted
IC50 [1]: 0.225 nM | IC50 [2]: 0.193 nM

B2: [N-terminal(C20 diacid-gGlu), des1, 4G, 9T, 15Q, 21Q, 23Y, 25P, 30S, 31G, 32T, 33Y]mimylin (peptide)
peptide: {C20 diacid-γGlu}-ASGLSTATLGRLSQELHELQTYPPTETGSGTY-NH2
SMILES: CC(C)C[C@H](NC(=O)CNC(=O)[C@H](CO)NC(=O)[C@H](C)NC(=O)CC[C@H](NC(=O)CCCCCCCCCCCCCCCCCCC(=O)O)C(=O)O)C(=O)N[C@@H](CO)C(=O)N[C@H](C(=O)N[C@@H](C)C(=O)N[C@H](C(=O)N[C@@H](CC(C)C)C(=O)NCC(=O)N[C@@H](CCCNC(=N)N)C(=O)N[C@@H](CC(C)C)C(=O)N[C@@H](CO)C(=O)N[C@@H](CCC(N)=O)C(=O)N[C@@H](CCC(=O)O)C(=O)N[C@@H](CC(C)C)C(=O)N[C@@H](Cc1c[nH]cn1)C(=O)N[C@@H](CCC(=O)O)C(=O)N[C@@H](CC(C)C)C(=O)N[C@@H](CCC(N)=O)C(=O)N[C@H](C(=O)N[C@@H](Cc1ccc(O)cc1)C(=O)N1CCC[C@H]1C(=O)N1CCC[C@H]1C(=O)N[C@H](C(=O)N[C@@H](CCC(=O)O)C(=O)N[C@H](C(=O)NCC(=O)N[C@@H](CO)C(=O)NCC(=O)N[C@H](C(=O)N[C@@H](Cc1ccc(O)cc1)C(N)=O)[C@@H](C)O)[C@@H](C)O)[C@@H](C)O)[C@@H](C)O)[C@@H](C)O)[C@@H](C)O
notes: as for B1
IC50 [1]: 0.216 nM | IC50 [2]: 0.053 nM

B3: [N-terminal(C20 diacid-gGlu), des1, 4G, 9V, 12K, 15Q, 21Q, 23Y, 25P, 30S, 31G, 32T, 33Y]mimylin (peptide)
peptide: {C20 diacid-γGlu}-ASGLSTAVLGKLSQELHELQTYPPTETGSGTY-NH2
SMILES: CC(C)C[C@H](NC(=O)CNC(=O)[C@H](CO)NC(=O)[C@H](C)NC(=O)CC[C@H](NC(=O)CCCCCCCCCCCCCCCCCCC(=O)O)C(=O)O)C(=O)N[C@@H](CO)C(=O)N[C@H](C(=O)N[C@@H](C)C(=O)N[C@H](C(=O)N[C@@H](CC(C)C)C(=O)NCC(=O)N[C@@H](CCCCN)C(=O)N[C@@H](CC(C)C)C(=O)N[C@@H](CO)C(=O)N[C@@H](CCC(N)=O)C(=O)N[C@@H](CCC(=O)O)C(=O)N[C@@H](CC(C)C)C(=O)N[C@@H](Cc1c[nH]cn1)C(=O)N[C@@H](CCC(=O)O)C(=O)N[C@@H](CC(C)C)C(=O)N[C@@H](CCC(N)=O)C(=O)N[C@H](C(=O)N[C@@H](Cc1ccc(O)cc1)C(=O)N1CCC[C@H]1C(=O)N1CCC[C@H]1C(=O)N[C@H](C(=O)N[C@@H](CCC(=O)O)C(=O)N[C@H](C(=O)NCC(=O)N[C@@H](CO)C(=O)NCC(=O)N[C@H](C(=O)N[C@@H](Cc1ccc(O)cc1)C(N)=O)[C@@H](C)O)[C@@H](C)O)[C@@H](C)O)[C@@H](C)O)C(C)C)[C@@H](C)O
notes: as for B1
IC50 [1]: 0.72 nM | IC50 [2]: 0.651 nM

B4: [N-terminal(C20 diacid-gGlu), des1, 4G, 9V, 15Q, 21Q, 23Y, 30S, 31Q, 32T, 33Y]mimylin (peptide)
peptide: {C20 diacid-γGlu}-ASGLSTAVLGRLSQELHELQTYPRTETGSQTY-NH2
SMILES: CC(C)C[C@H](NC(=O)CNC(=O)[C@H](CO)NC(=O)[C@H](C)NC(=O)CC[C@H](NC(=O)CCCCCCCCCCCCCCCCCCC(=O)O)C(=O)O)C(=O)N[C@@H](CO)C(=O)N[C@H](C(=O)N[C@@H](C)C(=O)N[C@H](C(=O)N[C@@H](CC(C)C)C(=O)NCC(=O)N[C@@H](CCCNC(=N)N)C(=O)N[C@@H](CC(C)C)C(=O)N[C@@H](CO)C(=O)N[C@@H](CCC(N)=O)C(=O)N[C@@H](CCC(=O)O)C(=O)N[C@@H](CC(C)C)C(=O)N[C@@H](Cc1c[nH]cn1)C(=O)N[C@@H](CCC(=O)O)C(=O)N[C@@H](CC(C)C)C(=O)N[C@@H](CCC(N)=O)C(=O)N[C@H](C(=O)N[C@@H](Cc1ccc(O)cc1)C(=O)N1CCC[C@H]1C(=O)N[C@@H](CCCNC(=N)N)C(=O)N[C@H](C(=O)N[C@@H](CCC(=O)O)C(=O)N[C@H](C(=O)NCC(=O)N[C@@H](CO)C(=O)N[C@@H](CCC(N)=O)C(=O)N[C@H](C(=O)N[C@@H](Cc1ccc(O)cc1)C(N)=O)[C@@H](C)O)[C@@H](C)O)[C@@H](C)O)[C@@H](C)O)C(C)C)[C@@H](C)O
notes: as for B1
IC50 [1]: 0.152 nM | IC50 [2]: 0.067 nM

B5: [N-terminal(C20 diacid-gGlu), des1, 4G, 15Q, 21Q, 23Y, 25H, 30S, 31G, 32T, 33Y]mimylin (peptide)
peptide: {C20 diacid-γGlu}-ASGLSTAALGRLSQELHELQTYPHTETGSGTY-NH2
SMILES: CC(C)C[C@H](NC(=O)CNC(=O)[C@H](CO)NC(=O)[C@H](C)NC(=O)CC[C@H](NC(=O)CCCCCCCCCCCCCCCCCCC(=O)O)C(=O)O)C(=O)N[C@@H](CO)C(=O)N[C@H](C(=O)N[C@@H](C)C(=O)N[C@@H](C)C(=O)N[C@@H](CC(C)C)C(=O)NCC(=O)N[C@@H](CCCNC(=N)N)C(=O)N[C@@H](CC(C)C)C(=O)N[C@@H](CO)C(=O)N[C@@H](CCC(N)=O)C(=O)N[C@@H](CCC(=O)O)C(=O)N[C@@H](CC(C)C)C(=O)N[C@@H](Cc1c[nH]cn1)C(=O)N[C@@H](CCC(=O)O)C(=O)N[C@@H](CC(C)C)C(=O)N[C@@H](CCC(N)=O)C(=O)N[C@H](C(=O)N[C@@H](Cc1ccc(O)cc1)C(=O)N1CCC[C@H]1C(=O)N[C@@H](Cc1c[nH]cn1)C(=O)N[C@H](C(=O)N[C@@H](CCC(=O)O)C(=O)N[C@H](C(=O)NCC(=O)N[C@@H](CO)C(=O)NCC(=O)N[C@H](C(=O)N[C@@H](Cc1ccc(O)cc1)C(N)=O)[C@@H](C)O)[C@@H](C)O)[C@@H](C)O)[C@@H](C)O)[C@@H](C)O
notes: as for B1
IC50 [1]: 0.166 nM | IC50 [2]: 0.15 nM

B6: [N-terminal(C20 diacid-gGlu), des1, 4G, 15Q, 21Q, 23Y, 30S, 31Q, 32T, 33Y]mimylin (peptide)
peptide: {C20 diacid-γGlu}-ASGLSTAALGRLSQELHELQTYPRTETGSQTY-NH2
SMILES: CC(C)C[C@H](NC(=O)CNC(=O)[C@H](CO)NC(=O)[C@H](C)NC(=O)CC[C@H](NC(=O)CCCCCCCCCCCCCCCCCCC(=O)O)C(=O)O)C(=O)N[C@@H](CO)C(=O)N[C@H](C(=O)N[C@@H](C)C(=O)N[C@@H](C)C(=O)N[C@@H](CC(C)C)C(=O)NCC(=O)N[C@@H](CCCNC(=N)N)C(=O)N[C@@H](CC(C)C)C(=O)N[C@@H](CO)C(=O)N[C@@H](CCC(N)=O)C(=O)N[C@@H](CCC(=O)O)C(=O)N[C@@H](CC(C)C)C(=O)N[C@@H](Cc1c[nH]cn1)C(=O)N[C@@H](CCC(=O)O)C(=O)N[C@@H](CC(C)C)C(=O)N[C@@H](CCC(N)=O)C(=O)N[C@H](C(=O)N[C@@H](Cc1ccc(O)cc1)C(=O)N1CCC[C@H]1C(=O)N[C@@H](CCCNC(=N)N)C(=O)N[C@H](C(=O)N[C@@H](CCC(=O)O)C(=O)N[C@H](C(=O)NCC(=O)N[C@@H](CO)C(=O)N[C@@H](CCC(N)=O)C(=O)N[C@H](C(=O)N[C@@H](Cc1ccc(O)cc1)C(N)=O)[C@@H](C)O)[C@@H](C)O)[C@@H](C)O)[C@@H](C)O)[C@@H](C)O
notes: as for B1
IC50 [1]: 0.131 nM | IC50 [2]: 0.051 nM

B7: [N-terminal(C20 diacid-gGlu), des1, 9V, 15Q, 21Q, 23Y, 30S, 31G, 32T, 33Y]mimylin (peptide)
peptide: {C20 diacid-γGlu}-ASELSTAVLGRLSQELHELQTYPRTETGSGTY-NH2
SMILES: CC(C)C[C@H](NC(=O)[C@H](CCCNC(=N)N)NC(=O)CNC(=O)[C@H](CC(C)C)NC(=O)[C@@H](NC(=O)[C@H](C)NC(=O)[C@@H](NC(=O)[C@H](CO)NC(=O)[C@H](CC(C)C)NC(=O)[C@H](CCC(=O)O)NC(=O)[C@H](CO)NC(=O)[C@H](C)NC(=O)CC[C@H](NC(=O)CCCCCCCCCCCCCCCCCCC(=O)O)C(=O)O)[C@@H](C)O)C(C)C)C(=O)N[C@@H](CO)C(=O)N[C@@H](CCC(N)=O)C(=O)N[C@@H](CCC(=O)O)C(=O)N[C@@H](CC(C)C)C(=O)N[C@@H](Cc1c[nH]cn1)C(=O)N[C@@H](CCC(=O)O)C(=O)N[C@@H](CC(C)C)C(=O)N[C@@H](CCC(N)=O)C(=O)N[C@H](C(=O)N[C@@H](Cc1ccc(O)cc1)C(=O)N1CCC[C@H]1C(=O)N[C@@H](CCCNC(=N)N)C(=O)N[C@H](C(=O)N[C@@H](CCC(=O)O)C(=O)N[C@H](C(=O)NCC(=O)N[C@@H](CO)C(=O)NCC(=O)N[C@H](C(=O)N[C@@H](Cc1ccc(O)cc1)C(N)=O)[C@@H](C)O)[C@@H](C)O)[C@@H](C)O)[C@@H](C)O
notes: as for B1
IC50 [1]: 0.297 nM | IC50 [2]: 0.085 nM
